Molecular target: T1, GFP-MYO7A (mouse) (mouse, UniProt P97479 1-2215)
T1 construct: MYO7A (myosin VIIA), mouse, in pEGFP-C1; plasmid obtained from David Corey; source: HEK293, transfected, in RIPA extract; not shown: GFP, N-terminal, kept
Test: affinity purification with mass spectrometry; HEK293 cells transfected; RIPA extract; 138-1 immunoprecipitates analysed by shotgun mass spectrometry, two technical replicates
Conditions: partners not purified

T1 sequence (P97479 whole entry): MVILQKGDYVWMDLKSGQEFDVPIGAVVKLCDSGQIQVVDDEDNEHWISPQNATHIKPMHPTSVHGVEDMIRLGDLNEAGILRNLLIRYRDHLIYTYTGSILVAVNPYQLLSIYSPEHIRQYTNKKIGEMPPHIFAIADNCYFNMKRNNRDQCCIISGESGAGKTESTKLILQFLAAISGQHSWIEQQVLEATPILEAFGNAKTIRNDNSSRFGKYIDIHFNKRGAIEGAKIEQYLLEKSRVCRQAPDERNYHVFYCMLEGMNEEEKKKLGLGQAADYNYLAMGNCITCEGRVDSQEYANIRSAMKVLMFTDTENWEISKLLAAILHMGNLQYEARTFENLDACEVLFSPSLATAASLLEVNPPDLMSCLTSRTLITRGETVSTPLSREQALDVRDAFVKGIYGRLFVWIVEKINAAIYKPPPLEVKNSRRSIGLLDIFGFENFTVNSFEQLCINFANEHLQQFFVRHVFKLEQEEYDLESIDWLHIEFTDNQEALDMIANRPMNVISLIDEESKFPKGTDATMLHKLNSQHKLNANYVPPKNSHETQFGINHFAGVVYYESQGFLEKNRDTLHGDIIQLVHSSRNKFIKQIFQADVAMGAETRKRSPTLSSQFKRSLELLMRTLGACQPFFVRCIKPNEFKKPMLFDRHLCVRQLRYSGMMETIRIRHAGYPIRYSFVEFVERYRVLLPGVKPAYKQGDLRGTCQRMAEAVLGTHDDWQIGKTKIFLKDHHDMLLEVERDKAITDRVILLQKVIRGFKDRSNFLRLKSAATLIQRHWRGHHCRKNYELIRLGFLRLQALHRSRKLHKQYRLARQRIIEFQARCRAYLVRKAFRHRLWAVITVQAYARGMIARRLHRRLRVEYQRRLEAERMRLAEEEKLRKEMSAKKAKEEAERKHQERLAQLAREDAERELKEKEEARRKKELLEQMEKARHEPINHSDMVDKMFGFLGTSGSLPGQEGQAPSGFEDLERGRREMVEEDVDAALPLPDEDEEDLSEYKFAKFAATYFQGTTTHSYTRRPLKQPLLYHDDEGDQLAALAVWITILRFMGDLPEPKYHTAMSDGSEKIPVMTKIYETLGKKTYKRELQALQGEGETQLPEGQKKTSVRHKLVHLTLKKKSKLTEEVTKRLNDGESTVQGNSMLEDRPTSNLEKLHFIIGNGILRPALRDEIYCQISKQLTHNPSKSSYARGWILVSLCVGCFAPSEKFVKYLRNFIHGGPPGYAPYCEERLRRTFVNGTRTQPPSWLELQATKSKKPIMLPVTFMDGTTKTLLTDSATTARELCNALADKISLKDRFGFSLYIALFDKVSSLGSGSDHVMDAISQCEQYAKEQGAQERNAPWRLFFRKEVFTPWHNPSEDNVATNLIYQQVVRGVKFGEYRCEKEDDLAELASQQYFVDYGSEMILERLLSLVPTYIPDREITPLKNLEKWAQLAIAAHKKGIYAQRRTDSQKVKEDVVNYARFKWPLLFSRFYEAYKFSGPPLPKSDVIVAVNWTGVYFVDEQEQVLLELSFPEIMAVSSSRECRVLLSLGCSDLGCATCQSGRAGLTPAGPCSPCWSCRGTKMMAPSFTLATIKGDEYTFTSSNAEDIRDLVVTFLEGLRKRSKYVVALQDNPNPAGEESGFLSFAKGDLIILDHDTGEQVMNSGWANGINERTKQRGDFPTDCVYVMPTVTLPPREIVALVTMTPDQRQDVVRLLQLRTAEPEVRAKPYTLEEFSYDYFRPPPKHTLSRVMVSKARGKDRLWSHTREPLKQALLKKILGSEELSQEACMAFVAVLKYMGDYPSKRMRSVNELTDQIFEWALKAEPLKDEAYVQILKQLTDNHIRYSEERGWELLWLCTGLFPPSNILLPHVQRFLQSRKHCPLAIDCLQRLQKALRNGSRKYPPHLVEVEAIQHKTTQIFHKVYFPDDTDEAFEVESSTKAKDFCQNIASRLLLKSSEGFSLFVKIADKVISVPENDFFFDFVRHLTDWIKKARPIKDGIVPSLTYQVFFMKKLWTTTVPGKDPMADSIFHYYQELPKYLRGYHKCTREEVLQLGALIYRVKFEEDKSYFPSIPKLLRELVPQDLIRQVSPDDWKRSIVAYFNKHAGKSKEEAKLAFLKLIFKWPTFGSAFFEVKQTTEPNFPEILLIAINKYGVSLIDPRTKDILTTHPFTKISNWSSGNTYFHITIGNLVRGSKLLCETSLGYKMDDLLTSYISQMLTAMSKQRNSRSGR

B1: mCherry-PDZD7 (mouse), in HEK293 (natural protein, UniProt E9Q9W7 1-1021, looked up)
chain: MARGFTVGFDPLGLGELSSGSLSSVSSRGHLGSDSGSTATRYLLRKQQRLLNGPSRGIRASSPMGRVILINSPIEANSDESDIIHAVRVEKSPSGRLGFSVRGGSEHGLGIFVSKVEEGSSAERAGLCVGDKITEVNGLSLESTTMGSAVRLLTSSSCLHMMVRRMGRVPGIKFSKEKTTWVDVVNRRLVVEKCSSTPSDRSSEDGVRRIVHLYTTSDDFCLGFNIRGGKEFGLGIYVSKVDHGGLAEENGIKVGDQVLAANGVRFDDISHSQAVEVLKGQTHIMLTIKETGRYPAYKEMVSEYCWLDRLSNGVLQQLSPASESSSSVSSYASSAPCSSGSLPSDRMDVCLGPEEPTSHGPGWGRADTAMQTEPDLDSRVETWCSVRPTVILRDTAIRSDGPSSTRHLDSALSESPKTALLLALSRPRTPITRSQSHLTLWEEKKQRKKEKSGSSGEKGALQRSKTLMNLFFKGGRQGRPAGDGHREAWTLDSRSPTKVRPRLDLEKAGSVGPVQKFVTWRLRRDRERGRALLSARSGSPSGQAPTVNEQVQAWESRRPLIQDLARRLLTDDEVLAVTRHCSRYVHEGGVEDLVRPLLAILDRPTKLLLLRDIRSVVAPTDLGRFDSMVMPVELEAFEALKSRAVGPSALRPTRQDTPPKRHLITPVPDSRGGFYLLPVNSSEDEDGEIREKLGVLKVSLGASAPHHKGIPPLQDVPVDAFSLRRGACAPPPQPPPVAPRPPRPNWLLTEPLSREDTQQNQSQTPAQSCSRSRSRSRSRSHSRGQGKSPGRRRSPSPAPIATAATANGRYHRPRKARPLLPRLLDGQVAKVGARQGPLENGRIAEEAVGNVSTGALRTITLSKMKQSLGISISGGIESKVQPMVKIEKIFPGGAAFLCGDLQAGFELVAVDGESLEQVTHQRAVDTIRRAYRNKAREPMELVVRVPGPGLLPLASDLRVVKDQSLAPDCPSALGPVDDARILTQLPPPEARQLQQSLSSALKVPQSIPKLSPILKDPHDPS
notes: PDZD7, mouse, cloned into pmCherry-C1; also called PDZD7 fused to mCherry; source: HEK293, transfected, in RIPA extract; not shown: mCherry, N-terminal, kept
- level in the 138-1 immunoprecipitate relative to MYO7A: ~0.4 x
